From US20250092426, “CAS ENDONUCLEASES AND RELATED METHODS” (Flagship Pioneering Innovations VII, LLC, published 2025)

Biological target: T1, CasEnd-9 (synthetic construct)
T1 chain: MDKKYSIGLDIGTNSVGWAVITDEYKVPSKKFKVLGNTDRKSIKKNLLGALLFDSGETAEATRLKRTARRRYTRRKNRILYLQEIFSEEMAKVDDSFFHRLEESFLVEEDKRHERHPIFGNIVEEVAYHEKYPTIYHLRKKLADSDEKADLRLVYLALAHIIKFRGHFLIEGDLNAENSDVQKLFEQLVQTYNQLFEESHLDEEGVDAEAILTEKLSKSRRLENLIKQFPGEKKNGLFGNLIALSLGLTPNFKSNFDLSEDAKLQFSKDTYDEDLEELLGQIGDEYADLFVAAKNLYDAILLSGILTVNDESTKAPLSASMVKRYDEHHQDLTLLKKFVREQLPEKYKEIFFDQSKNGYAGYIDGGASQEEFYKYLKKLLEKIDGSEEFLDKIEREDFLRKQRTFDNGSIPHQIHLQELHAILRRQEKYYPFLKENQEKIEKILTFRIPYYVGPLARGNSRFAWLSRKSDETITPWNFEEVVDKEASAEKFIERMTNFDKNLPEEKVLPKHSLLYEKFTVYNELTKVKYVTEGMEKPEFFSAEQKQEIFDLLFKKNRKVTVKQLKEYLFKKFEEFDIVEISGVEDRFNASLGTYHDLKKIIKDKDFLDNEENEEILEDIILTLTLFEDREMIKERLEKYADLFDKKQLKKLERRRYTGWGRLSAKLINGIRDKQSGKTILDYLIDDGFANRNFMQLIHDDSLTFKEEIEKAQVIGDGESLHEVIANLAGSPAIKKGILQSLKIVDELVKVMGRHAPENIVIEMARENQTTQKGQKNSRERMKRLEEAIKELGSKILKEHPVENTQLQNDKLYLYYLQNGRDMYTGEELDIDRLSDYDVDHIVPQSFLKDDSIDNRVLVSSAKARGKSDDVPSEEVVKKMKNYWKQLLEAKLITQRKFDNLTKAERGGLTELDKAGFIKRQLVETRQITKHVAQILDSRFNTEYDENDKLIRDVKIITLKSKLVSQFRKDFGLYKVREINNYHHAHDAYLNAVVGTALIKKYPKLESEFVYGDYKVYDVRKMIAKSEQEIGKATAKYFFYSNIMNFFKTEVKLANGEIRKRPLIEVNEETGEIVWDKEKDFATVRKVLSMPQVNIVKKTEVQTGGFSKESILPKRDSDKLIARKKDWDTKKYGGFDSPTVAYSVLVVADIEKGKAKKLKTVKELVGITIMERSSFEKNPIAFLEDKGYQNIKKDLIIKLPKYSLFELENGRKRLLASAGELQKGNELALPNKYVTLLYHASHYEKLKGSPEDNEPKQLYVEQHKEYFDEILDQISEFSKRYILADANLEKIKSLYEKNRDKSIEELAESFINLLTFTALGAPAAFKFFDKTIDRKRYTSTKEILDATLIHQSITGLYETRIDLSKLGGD
Assay: cell_activity; +++; HEK293T; PAM not stated
In short: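 Editing activity was scored as the fraction of GFP+ cells on day 4 by flow cytometry. BFP-expressing HEK293T cells (250,000) received by nucleofection 200 ng plasmid for the RT-Cas fusion protein and 200 ng template RNA plasmid designed to convert BFP to GFP.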

B1: BFP-to-GFP template RNA ; BFP reporter protospacer (ssRNA ; dsDNA)
RNA: GCCGAAGCACUGCACGCCGUGUUUUAGAGCUAGAAAUAGCAAGUUAAAAUAAGGCUAGUCCGUUAUCAACUUGAAAAAGUGGCACCGAGUCGGUGCACCCUGACGUACGGCGUGCAGUGCUU
DNA 1: GCCGAAGCACTGCACGCCGT
DNA 2: ACGGCGTGCAGTGCTTCGGC
activity: ≥ 100 % of reference
